The values below are quoted from earlier work in publication PMC7308888, “Development of a cell-free split-luciferase biochemical assay as a tool for screening for inhibitors of challenging protein-protein interaction targets” (Wellcome Open Research, 2020).

The series addresses RAF (Homo sapiens) (UniProt P04049).

Turning to RAS (from UniProt P01116), the Kd is 20 nM.

One may read the Kd as a measure of binding affinity in units of concentration.
